This is an account of results in publication doi:10.1101/2021.10.12.462922 (bioRxiv, 2021).

One data set addresses PHF14;HMG20A;TCF20 (human;human;human, UniProt O94880;Q9NP66;Q9UGU0 1-948;1-347;1-1960, ||). In words: EMSA. For orientation: Mobility shift assays separate free from complexed probe on a gel.
A further data set addresses PHF14;HMG20A (human;human, UniProt O94880;Q9NP66 1-948;1-347, |). Nature of the data set: EMSA.
In data set [1] the target is T1, HMG20A (human, UniProt Q9NP66 1-347). In words: EMSA.
The target of the next data set is T2, PHF14 (human, UniProt O94880 1-948).
T2 sequence: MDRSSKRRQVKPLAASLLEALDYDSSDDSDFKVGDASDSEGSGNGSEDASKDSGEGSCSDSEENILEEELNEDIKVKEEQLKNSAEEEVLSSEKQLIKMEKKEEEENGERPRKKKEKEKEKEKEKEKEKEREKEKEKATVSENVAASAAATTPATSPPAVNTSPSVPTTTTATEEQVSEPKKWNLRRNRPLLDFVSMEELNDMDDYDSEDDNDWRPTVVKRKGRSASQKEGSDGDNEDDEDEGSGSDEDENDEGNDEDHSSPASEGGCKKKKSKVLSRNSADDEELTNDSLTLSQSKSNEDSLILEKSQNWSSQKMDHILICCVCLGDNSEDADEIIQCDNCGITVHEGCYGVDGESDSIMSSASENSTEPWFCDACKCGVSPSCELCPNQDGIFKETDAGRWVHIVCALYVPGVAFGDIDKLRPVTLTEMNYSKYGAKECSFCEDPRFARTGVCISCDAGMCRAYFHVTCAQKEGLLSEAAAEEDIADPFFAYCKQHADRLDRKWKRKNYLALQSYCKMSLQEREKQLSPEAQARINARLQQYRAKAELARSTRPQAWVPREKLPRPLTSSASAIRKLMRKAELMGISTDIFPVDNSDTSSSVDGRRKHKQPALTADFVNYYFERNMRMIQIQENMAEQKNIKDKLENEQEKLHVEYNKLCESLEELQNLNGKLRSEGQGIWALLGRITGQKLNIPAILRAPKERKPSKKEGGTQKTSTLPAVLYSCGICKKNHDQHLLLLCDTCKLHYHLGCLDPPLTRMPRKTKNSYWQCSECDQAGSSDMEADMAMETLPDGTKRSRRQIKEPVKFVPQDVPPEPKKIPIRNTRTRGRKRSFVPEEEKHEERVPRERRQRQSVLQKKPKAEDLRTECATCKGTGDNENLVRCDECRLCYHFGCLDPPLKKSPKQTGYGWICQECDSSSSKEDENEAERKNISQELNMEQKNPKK
In words: EMSA.

Data set [2] deals with T1, HMG20A. Nature of the data set: EMSA. This is another data set of the same source.
For data set [3], the target named is T3, HMG20A, human, recombinant from insect cells (human, UniProt Q9NP66 1-347).
T3 sequence: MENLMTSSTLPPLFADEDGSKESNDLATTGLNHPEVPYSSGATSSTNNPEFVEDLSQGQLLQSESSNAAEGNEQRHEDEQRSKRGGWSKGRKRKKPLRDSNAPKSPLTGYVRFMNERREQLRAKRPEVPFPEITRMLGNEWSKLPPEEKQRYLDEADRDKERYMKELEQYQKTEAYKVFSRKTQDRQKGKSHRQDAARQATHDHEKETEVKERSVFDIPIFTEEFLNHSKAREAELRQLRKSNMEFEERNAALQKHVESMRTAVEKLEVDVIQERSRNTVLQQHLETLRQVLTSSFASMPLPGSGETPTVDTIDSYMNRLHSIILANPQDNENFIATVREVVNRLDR
Nature of the data set: native gel or EMSA.

The target of data set [4] is PHF14 (PHD finger protein 14), human, recombinant from insect cells (human) (UniProt O94880). Nature of the data set: native gel or EMSA.

Like-named read-outs stand apart in the source and are kept apart here.

B1: dsDNA (dsDNA)
DNA 1: CCCTATAACCCCTGCATTGAATTCCAGTCTGATAA
DNA 2: TTTATCAGACTGGAATTCAATGCAGGGGTTATAGGG
Turning to B1, the binding result with PHF14;HMG20A;TCF20, with PHF14;HMG20A and with HMG20A [1] was “binds” each time.

B2: 4WJ (four-way junction, Holliday junction) (structured_DNA)
DNA 1: B1 DNA 1
DNA 2: GTAGTCGTGATAGGTGCAGGGGTTATAGGG
DNA 3: AACAGTAGCTCTTATTCGAGCTCGCGCCCTATCACGACTA
DNA 4: TTTATCAGACTGGAATTCAAGCGCGAGCTCGAATAAGAGCTACTGT
As to B2, the binding result with PHF14 is on record as “no binding”; in the data set with HMG20A [2], “binds”; with PHF14;HMG20A;TCF20, “binds”; with PHF14;HMG20A, “binds”.

B3: TCF20 (transcription factor 20), human, recombinant from insect cells (natural protein)
chain: MQSFREQSSYHGNQQSYPQEVHGSSRLEEFSPRQAQMFQNFGGTGGSSGSSGSGSGGGRRGAAAAAAAMASETSGHQGYQGFRKEAGDFYYMAGNKDPVTTGTPQPPQRRPSGPVQSYGPPQGSSFGNQYGSEGHVGQFQAQHSGLGGVSHYQQDYTGPFSPGSAQYQQQASSQQQQQQVQQLRQQLYQSHQPLPQATGQPASSSSHLQPMQRPSTLPSSAAGYQLRVGQFGQHYQSSASSSSSSSFPSPQRFSQSGQSYDGSYNVNAGSQYEGHNVGSNAQAYGTQSNYSYQPQSMKNFEQAKIPQGTQQGQQQQQPQQQQHPSQHVMQYTNAATKLPLQSQVGQYNQPEVPVRSPMQFHQNFSPISNPSPAASVVQSPSCSSTPSPLMQTGENLQCGQGSVPMGSRNRILQLMPQLSPTPSMMPSPNSHAAGFKGFGLEGVPEKRLTDPGLSSLSALSTQVANLPNTVQHMLLSDALTPQKKTSKRPSSSKKADSCTNSEGSSQPEEQLKSPMAESLDGGCSSSSEDQGERVRQLSGQSTSSDTTYKGGASEKAGSSPAQGAQNEPPRLNASPAAREEATSPGAKDMPLSSDGNPKVNEKTVGVIVSREAMTGRVEKPGGQDKGSQEDDPAATQRPPSNGGAKETSHASLPQPEPPGGGGSKGNKNGDNNSNHNGEGNGQSGHSAAGPGFTSRTEPSKSPGSLRYSYKDSFGSAVPRNVSGFPQYPTGQEKGDFTGHGERKGRNEKFPSLLQEVLQGYHHHPDRRYSRSTQEHQGMAGSLEGTTRPNVLVSQTNELASRGLLNKSIGSLLENPHWGPWERKSSSTAPEMKQINLTDYPIPRKFEIEPQSSAHEPGGSLSERRSVICDISPLRQIVRDPGAHSLGHMSADTRIGRNDRLNPTLSQSVILPGGLVSMETKLKSQSGQIKEEDFEQSKSQASFNNKKSGDHCHPPSIKHESYRGNASPGAATHDSLSDYGPQDSRPTPMRRVPGRVGGREGMRGRSPSQYHDFAEKLKMSPGRSRGPGGDPHHMNPHMTFSERANRSSLHTPFSPNSETLASAYHANTRAHAYGDPNAGLNSQLHYKRQMYQQQPEEYKDWSSGSAQGVIAAAQHRQEGPRKSPRQQQFLDRVRSPLKNDKDGMMYGPPVGTYHDPSAQEAGRCLMSSDGLPNKGMELKHGSQKLQESCWDLSRQTSPAKSSGPPGMSSQKRYGPPHETDGHGLAEATQSSKPGSVMLRLPGQEDHSSQNPLIMRRRVRSFISPIPSKRQSQDVKNSSTEDKGRLLHSSKEGADKAFNSYAHLSHSQDIKSIPKRDSSKDLPSPDSRNCPAVTLTSPAKTKILPPRKGRGLKLEAIVQKITSPNIRRSASSNSAEAGGDTVTLDDILSLKSGPPEGGSVAVQDADIEKRKGEVASDLVSPANQELHVEKPLPRSSEEWRGSVDDKVKTETHAETVTAGKEPPGAMTSTTSQKPGSNQGRPDGSLGGTAPLIFPDSKNVPPVGILAPEANPKAEEKENDTVTISPKQEGFPPKGYFPSGKKKGRPIGSVNKQKKQQQPPPPPPQPPQIPEGSADGEPKPKKQRQRRERRKPGAQPRKRKTKQAVPIVEPQEPEIKLKYATQPLDKTDAKNKSFYPYIHVVNKCELGAVCTIINAEEEEQTKLVRGRKGQRSLTPPPSSTESKALPASSFMLQGPVVTESSVMGHLVCCLCGKWASYRNMGDLFGPFYPQDYAATLPKNPPPKRATEMQSKVKVRHKSASNGSKTDTEEEEEQQQQQKEQRSLAAHPRFKRRHRSEDCGGGPRSLSRGLPCKKAATEGSSEKTVLDSKPSVPTTSEGGPELELQIPELPLDSNEFWVHEGCILWANGIYLVCGRLYGLQEALEIAREMKCSHCQEAGATLGCYNKGCSFRYHYPCAIDADCLLHEENFSVRCPKHKPPLPCPLPPLQNKTAKGSLSTEQSERG
With B3, the “stoichiometry N” value in data set [3] and in data set [4] was 0.5 in each case.

One may read the stoichiometry N as a count of units in the complex or per binding partner.
